T1: human soluble IL-6R (human, UniProt P08887 20-357, limits assumed)
T1 construct: Soluble form; also called sIL6R; Human IL-6R
T1 sequence (looked up): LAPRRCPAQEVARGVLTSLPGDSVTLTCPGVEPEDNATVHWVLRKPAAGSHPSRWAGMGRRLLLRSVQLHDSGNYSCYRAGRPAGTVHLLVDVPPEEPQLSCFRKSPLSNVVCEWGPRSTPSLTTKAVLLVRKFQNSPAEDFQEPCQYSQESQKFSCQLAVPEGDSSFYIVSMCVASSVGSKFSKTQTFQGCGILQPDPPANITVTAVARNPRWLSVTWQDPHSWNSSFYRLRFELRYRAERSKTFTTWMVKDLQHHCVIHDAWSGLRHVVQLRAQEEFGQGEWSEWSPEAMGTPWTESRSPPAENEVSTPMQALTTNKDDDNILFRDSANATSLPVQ


Legend:
rat albumin = target: T2, rat albumin (rat, UniProt P02770 25-608); experiment: inferred from reduced antigen complex in rat plasma (Gyrolab xP)
T2 construct: also called albumin in SD rat plasma
T2 sequence (P02770 25-608 limits assumed): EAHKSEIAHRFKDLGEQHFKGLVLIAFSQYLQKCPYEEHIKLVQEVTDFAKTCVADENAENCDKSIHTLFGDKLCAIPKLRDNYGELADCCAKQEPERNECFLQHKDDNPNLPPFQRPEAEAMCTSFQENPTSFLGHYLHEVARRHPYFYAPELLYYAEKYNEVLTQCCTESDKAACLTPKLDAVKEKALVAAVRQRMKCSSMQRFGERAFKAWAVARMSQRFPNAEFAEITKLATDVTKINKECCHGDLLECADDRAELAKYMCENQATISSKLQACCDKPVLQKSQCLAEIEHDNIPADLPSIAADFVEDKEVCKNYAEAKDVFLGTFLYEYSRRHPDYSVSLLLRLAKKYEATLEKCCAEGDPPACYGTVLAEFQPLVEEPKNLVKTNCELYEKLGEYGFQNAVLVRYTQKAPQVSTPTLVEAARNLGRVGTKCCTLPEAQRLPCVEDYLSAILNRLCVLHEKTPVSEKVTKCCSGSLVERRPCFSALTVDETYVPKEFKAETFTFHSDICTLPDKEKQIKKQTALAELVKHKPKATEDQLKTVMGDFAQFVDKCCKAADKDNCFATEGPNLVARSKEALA

human soluble IL-6R [1] = target: T1, human soluble IL-6R; experiment: in vivo KD in mouse plasma (albumin present), from total antibody, free and bound sIL6R 5 min after sIL6R; antibody 0.2 mg/kg IV
Method: (§1) Next, free sIL6R in plasma was measured. The concentration of free sIL6R in plasma was measured on a fully automated ELISA system (Gyrolab xP workstation). First, sIL6R prepared at 23.4, 46.9, 93.8, 188, 375, 750, and 1500 ng/mL using a Protein-Free (PBS) Blocking Buffer (Thermo Scientific) was used as solutions for preparing the calibration curve. Mouse plasma samples were used in the measurements without diluting them. A solution of biotin-labeled H54 diluted to 10 micro g/mL using a Protein-Free (PBS) Blocking Buffer was used as a solution of the sIL6R-capturing molecule. Alexa Fluor (registered trademark) 647-labeled anti-human IL-6R antibody (R&D Systems) diluted to 1 micro g/mL using a Protein-Free (PBS) Blocking Buffer was used as a solution of the human IL-6R-detection molecule. PBS (pH 7.4) containing 0.05% TWEEN was used as a washing solution. The calibration curve solutions, mouse plasma samples, sIL6R-capturing molecule solution, sIL6R-detection molecule solution, and the washing solution were placed onto a PCR plate, and then the PCR plate was sealed with a plate sealer. After the PCR plate and the Bioaffy 200 disc were placed in the Gyrolab xP workstation, measurements were taken. Using the data processed by the Gyros Evaluater 3.6.2.30 software and the calibration curve concentrations, the concentration of free sIL6R in plasma was calculated by logistic regression using the XLfit 5.5.0.5 software.
Additionally, bound sIL6R in plasma was measured. The concentration of bound sIL6R in plasma was measured on an electrospray ionization mass spectrometer connected to a high-performance liquid chromatography (LC/ESI-MS/MS). First, H54//IC17 and sIL6R were mixed, and solutions for preparing the calibration curve of bound sIL6R were prepared at theoretical plasma concentrations of 0.0468, 0.467, 4.60, and 20.1 nmol/mL. […]

human soluble IL-6R [2] = target: T1, human soluble IL-6R; experiment: SPR (Biacore T200), antibody captured on Protein G, human IL-6R as analyte, 37 degrees C, no albumin
Method: Binding activities of the produced albumin switch molecules against human IL-6R were evaluated using Biacore T200 (Cytiva). As the running buffer, 50 mM Na Phosphate (pH 7.4), 150 mM NaCl, 0.05% Tween20 was used, and the evaluation was performed at 37 degrees C. First, Protein G (CALBIOCHEM) was used as a ligand-capturing molecule. Protein G (CALBIOCHEM) was solid-phased on a Series S Sensor Chip CM4 (Cytiva) using an Amine Coupling Kit (Cytiva). Antibody solution prepared using the running buffer was allowed to interact with this CM4 sensor chip to capture approximately 200 RU of the antibody. Human IL-6R used in the present measurement was prepared by an approach described in WO2018097307 (Example 3-2). Human IL-6R was diluted to 0, 100, and 400 nM with the running buffer, and allowed to bind to the captured antibody. The chip was regenerated using 3 M MgCl₂, and measurements were performed by repeatedly capturing the antibodies. Dissociation constant (KD) of each antibody for human IL-6R was calculated using Biacore T200 Evaluation Software 2.0. Specifically, the association rate constant ka (L/mol/s) and the dissociation rate constant kd (1/s) were calculated by global fitting of the sensorgrams obtained by measurement with the 1:1 Langmuir binding model, and the dissociation constant KD (mol/L) was calculated from these values.

human soluble IL-6R [3] = target: T1, human soluble IL-6R; experiment: Gyrolab xP immunoassay of antibody-antigen complex in C57BL/6J mouse plasma (albumin present), 1 nM antibody, 4 nM antigen
human soluble IL-6R [4] = target: T1, human soluble IL-6R; experiment: in vivo KD in mouse plasma (albumin present), from total antibody, free and bound sIL6R 5 min after sIL6R; antibody 1 mg/kg IV
Method: as §1
Additionally, bound sIL6R in plasma was measured. The concentration of bound sIL6R in plasma was measured on an electrospray ionization mass spectrometer connected to a high-performance liquid chromatography (LC/ESI-MS/MS). First, H54//IC17 and sIL6R were mixed, and solutions for preparing the calibration curve of bound sIL6R were prepared at theoretical plasma concentrations of 0.0468, 0.467, 4.60, and 20.1 nmol/mL. The solutions for preparing the calibration curve and 1 or 2 micro L of a plasma sample were added to 75 or 150 micro g of magnetic beads (Magnosphere MS300/Carboxyl, JSR) to which anti-delta GK antibodies were solid-phased, and this was shaken at 25 degrees C. for one hour.

mouse albumin = target: T3, mouse albumin (mouse, UniProt P07724 25-608); experiment: SPR (Biacore T200), antibody captured by anti-human Fc antibody, mouse albumin as analyte, 25 degrees C
T3 construct: also called recombinant mouse Albumin; mouse serum albumin
Method: Binding activities of the produced antibodies against mouse albumin were evaluated using Biacore T200 (Cytiva).
As the running buffer, 50 mM Na Phosphate (pH 7.4), 150 mM NaCl, 0.05% Tween20 was used, and the evaluation was performed at 25 degrees C. First, anti-human Fc antibody (Cytiva) was used as a ligand-capturing molecule. Anti-human Fc antibody (Cytiva) was solid-phased on a Series S Sensor Chip CM4 (Cytiva) using an Amine Coupling Kit (Cytiva). Antibody solution prepared using the running buffer was allowed to interact with this CM4 sensor chip to capture approximately 120 RU of the antibody. Mouse albumin (Bioscience) was diluted to 0 and 300 nM with the running buffer and allowed to bind to the captured antibody. The chip was regenerated using 3 M MgCl₂, and measurements were performed by repeatedly capturing the antibodies. Dissociation constant (KD) of each antibody for mouse albumin was calculated using Biacore T200 Evaluation Software 2.0. Specifically, the association rate constant ka (L/mol/s) and the dissociation rate constant kd (1/s) were calculated by global fitting of the sensorgrams obtained by measurement with the 1:1 Langmuir binding model, and the dissociation constant KD (mol/L) was calculated from these values.

human albumin = target: T4, human albumin (human, UniProt P02768 25-609); experiment: inferred from reduced antigen complex in human plasma (Gyrolab xP)
T4 construct: also called albumin in human plasma
T4 sequence (P02768 25-609 limits assumed): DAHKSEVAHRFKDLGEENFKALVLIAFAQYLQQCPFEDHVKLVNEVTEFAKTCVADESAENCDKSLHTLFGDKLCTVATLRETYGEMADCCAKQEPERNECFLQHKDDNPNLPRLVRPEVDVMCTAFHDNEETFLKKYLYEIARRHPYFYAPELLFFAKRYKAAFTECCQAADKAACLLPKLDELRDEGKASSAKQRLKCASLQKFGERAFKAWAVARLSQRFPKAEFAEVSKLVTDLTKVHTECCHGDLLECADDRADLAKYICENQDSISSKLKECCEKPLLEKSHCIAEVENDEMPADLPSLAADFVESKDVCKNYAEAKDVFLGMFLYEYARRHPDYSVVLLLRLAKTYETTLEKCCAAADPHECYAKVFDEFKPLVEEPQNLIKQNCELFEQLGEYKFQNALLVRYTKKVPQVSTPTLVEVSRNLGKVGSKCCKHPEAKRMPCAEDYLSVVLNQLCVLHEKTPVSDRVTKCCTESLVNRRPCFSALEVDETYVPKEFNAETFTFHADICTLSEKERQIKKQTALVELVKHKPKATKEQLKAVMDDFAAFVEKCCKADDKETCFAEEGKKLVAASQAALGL

Binder | binding result (rat albumin) | Kd (human soluble IL-6R [1]) [nM] | Kd (human soluble IL-6R [2]) [nM] | koff (human soluble IL-6R [2]) [s⁻¹] | kon (human soluble IL-6R [2]) [M⁻¹ s⁻¹] | decrease in the signal derived from the complex, compared to H54//IC17 (human soluble IL-6R [3]) [%] | Kd (human soluble IL-6R [4]) [nM] | Kd (mouse albumin) [nM] | koff (mouse albumin) [s⁻¹] | kon (mouse albumin) [M⁻¹ s⁻¹] | binding result (human albumin)
ABD094(H/L)-H54//IC17 (bispecific antibody, human IgG1, kappa, also called anti-IL6R albumin switch molecule) heavy 1: LAEAKEAANAELDSYGVSDFYKRLIDKAKTVEGVEALKDAILAALPQVQLQESGPGLVKPSETLSLTCAVSGYSISDDQAWSWVRQPPGEGLEWIGYISYSGITNYNPSLKGRVTISRDTSKNQFSLKLSSVTAADTAAYYCARSLARTTAMDYWGEGTLVTVSSASTKGPSVFPLAPSSKSTSGGTAALGCLVEDYFPEPVTVSWNSGALTSGVHTFPAVLQSSGLYSLSSVVTVPSSSLGTQTYICNVNHKPSNTKVDERVEPKSCDKTHTCPPCPAPELRRGPSVFLFPPKPKDTLMISRTPEVTCVVVDVSHEDPEVKFNWYVDGVEVHNAKTKPREEQYNSTYRVVSVLTVLHQDWLNGKEYKCKVSNKALPAPIEKTISKAKGQPREPQVCTLPPSREEMTKNQVSLSCAVKGFYPSDIAVEWESNGQPENNYKTTPPVLDSDGSFFLVSKLTVDKSRWQQGNVFSCSVMHEALHNHYTQKSLSLSP light 1: LAEAKEAANAELDSYGVSDFYKRLIDKAKTVEGVEALKDAILAALPDIQMTQSPSSLSASVGDSVTITCQASQDISSYLNWYQQKPGKAPELLIYYGSELHSGVPSRFSGSGSGTDFTFTISSLEAEDAATYYCQQGNSLPYTFGQGTKVEIERTVAAPSVFIFPPSDRKLKSGTASVVCLLNNFYPREAKVQWKVDNALQSGNSQESVTEQDSKDSTYSLSSTLTLSKADYEKHKVYACEVTHQGLSSPVTKSFNRGEC heavy 2: not shown light 2: QVQLQQSGPQLVRPGASVKISCKASGYSFTSYWMHWVNQRPGQGLEWIGMIDPSYSETRLNQKFKDKATLTVDKSSSTAYMQLSSPTSEDSAVYYCALYGNYFDYWGQGTTLTVSSASVAAPSVFIFPPSDEQLKSGTASVVCLLNNFYPREAKVQWKVDNALQSGNSQESVTEQDSKDSTYSLSSTLTLSKADYEKHKVYACEVTHQGLSSPVTKSFNRGEC | binds | 141 | 3.7 | 0.000779 | 210000 | 95 | 306 | 19.4 | 0.00112 | 57600 | binds
ABP(H/L).N13-H54//IC17 (bispecific antibody, human IgG1, kappa, also called ABP(H/L)-H54//IC17) heavy 1: QRLMEDICLPRWGCLWEDDFGGGSQVQLQESGPGLVKPSETLSLTCAVSGYSISDDQAWSWVRQPPGEGLEWIGYISYSGITNYNPSLKGRVTISRDTSKNQFSLKLSSVTAADTAAYYCARSLARTTAMDYWGEGTLVTVSSASTKGPSVFPLAPSSKSTSGGTAALGCLVEDYFPEPVTVSWNSGALTSGVHTFPAVLQSSGLYSLSSVVTVPSSSLGTQTYICNVNHKPSNTKVDERVEPKSCDKTHTCPPCPAPELRRGPSVFLFPPKPKDTLMISRTPEVTCVVVDVSHEDPEVKFNWYVDGVEVHNAKTKPREEQYNSTYRVVSVLTVLHQDWLNGKEYKCKVSNKALPAPIEKTISKAKGQPREPQVCTLPPSREEMTKNQVSLSCAVKGFYPSDIAVEWESNGQPENNYKTTPPVLDSDGSFFLVSKLTVDKSRWQQGNVFSCSVMHEALHNHYTQKSLSLSP light 1: QRLMEDICLPRWGCLWEDDFGGGSDIQMTQSPSSLSASVGDSVTITCQASQDISSYLNWYQQKPGKAPELLIYYGSELHSGVPSRFSGSGSGTDFTFTISSLEAEDAATYYCQQGNSLPYTFGQGTKVEIERTVAAPSVFIFPPSDRKLKSGTASVVCLLNNFYPREAKVQWKVDNALQSGNSQESVTEQDSKDSTYSLSSTLTLSKADYEKHKVYACEVTHQGLSSPVTKSFNRGEC heavy 2: not shown light 2: QVQLQQSGPQLVRPGASVKISCKASGYSFTSYWMHWVNQRPGQGLEWIGMIDPSYSETRLNQKFKDKATLTVDKSSSTAYMQLSSPTSEDSAVYYCALYGNYFDYWGQGTTLTVSSASVAAPSVFIFPPSDEQLKSGTASVVCLLNNFYPREAKVQWKVDNALQSGNSQESVTEQDSKDSTYSLSSTLTLSKADYEKHKVYACEVTHQGLSSPVTKSFNRGEC | binds | 2 | 2.02 | 0.000951 | 471000 | – | 13.4 | 10.2 | 0.000443 | 43500 | binds

From US20260209363A1 (Chugai, published 2026)
